Reference: US20060123518A1, “Methods for culturing cereal endosperm” (Pioneer Hi-Bred International, Inc., priority 2004, published 2006)

System: aleurone cell development
Assay: Chemical genetics with in vitro cultured endosperm expressing Ltp2-driven ZsYellow in aleurone cells
Format: cell-based, maize
Details: in vitro endosperm cultures in liquid proliferation medium, 96 well plates; predicted result
Procedure: In vitro cultured endosperm produced by the methods of the present invention and that express the ZsYellow fluorescent protein in aleurone cells under the control of the Ltp2 promoter are plated in 96 well microtiter plates with one endosperm added per well in liquid proliferation medium. To each well, a candidate chemical to be evaluated is added. The effect of the chemical on aleurone cell development is evaluated, for example, as the loss of aleurone cell identity as detected as lack of yellow fluorescence, either on the whole surface of the in vitro cultured endosperm or in patches on the surface. For example, a chemical genetics approach can be used to assess the function of the Dek1 gene product. The defective kernel 1 (dek1) gene is required for aleurone cell development in the endosperm of maize grains and this gene encodes a membrane protein of the calpain gene superfamily (Lid et al. (2002) Proc. Natl. Acad. Sci. USA. 99(8):5460-5465). Using mutant sector analysis, it has been shown that, if an aleurone cell looses the Dek1 gene function, the cell loses its aleurone cell identity and converts to a starchy endosperm cell fate (Becraft et al. (2000) Development 127:4039-4048). n this example, in vitro endosperm cultures are exposed to the calpain inhibitor calpastatin by the method described above.

B1: calpastatin (protein, UniProt P20810 1-708, looked up)
Calpastatin: MNPTETKAIPVSQQMEGPHLPNKKKHKKQAVKTEPEKKSQSTKLSVVHEKKSQEGKPKEHTEPKSLPKQASDTGSNDAHNKKAVSRSAEQQPSEKSTEPKTKPQDMISAGGESVAGITAISGKPGDKKKEKKSLTPAVPVESKPDKPSGKSGMDAALDDLIDTLGGPEETEEENTTYTGPEVSDPMSSTYIEELGKREVTIPPKYRELLAKKEGITGPPADSSKPIGPDDAIDALSSDFTCGSPTAAGKKTEKEESTEVLKAQSAGTVRSAAPPQEKKRKVEKDTMSDQALEALSASLGTRQAEPELDLRSIKEVDEAKAKEEKLEKCGEDDETIPSEYRLKPATDKDGKPLLPEPEEKPKPRSESELIDELSEDFDRSECKEKPSKPTEKTEESKAAAPAPVSEAVCRTSMCSIQSAPPEPATLKGTVPDDAVEALADSLGKKEADPEDGKPVMDKVKEKAKEEDREKLGEKEETIPPDYRLEEVKDKDGKPLLPKESKEQLPPMSEDFLLDALSEDFSGPQNASSLKFEDAKLAAAISEVVSQTPASTTQAGAPPRDTSQSDKDLDDALDKLSDSLGQRQPDPDENKPMEDKVKEKAKAEHRDKLGERDDTIPPEYRHLLDDNGQDKPVKPPTKKSEDSKKPADDQDPIDALSGDLDSCPSTTETSQNTAKDKCKKAASSSKAPKNGGKAKDSAKTTEETSKPKDD
effect on aleurone cell identity (yellow fluorescence on endosperm surface): lack of fluorescence in spot on the surface
